In paper PMC4259101:

Biological target: MED14-containing head+middle (H+M+14) complex (human) (UniProt O60244)
Experiment: co-IP

percent of input bound: < 75 % of input
Substance: RNA polymerase II (from UniProt P24928;P61218) (complex)
